In publication PMC3551926, “Dact2 Represses PITX2 Transcriptional Activation and Cell Proliferation through Wnt/beta-Catenin Signaling during Odontogenesis” (PLoS ONE, 2013):

Target: GST-PITX2A-FL (full length) (UniProt Q99697-3 1-271)
Experiment: cell-based or functional assay

B1: Dact2, purified bacterially expressed protein (natural protein, mouse, UniProt Q7TN08 1-757, looked up)
chain: MWAPSGQGPAGWDRRRVGARLRAALAGLQELQGLRATQQARVRGALGLHPAPGPRGQELRLEAALTALREQLSRLRRQDAGLKTHLDQLDQQISELQLDVSRSSCEALDSDSRPSSGFYELSDAGSCSLSTSCASVCSDRLSPSLGSWLPVFQPSKSRSGIGDWRPRSADETTVPAWSPQLTEDSRLLHGAEGTGRLTGMFRPRPVSTGDLERVLPADVGLQRAGTDAAHLLGQGIEIPAHALDPTYQRDLVARGGQEVYPYPSPLHAVALQSPLFALPKEAPCFDICSPPQEPPLVPVDENRTQPEPIRELGSAEAYIHRLLHLRGQELPLRDVGQEQGGDTAAFPPKPCGQRSESTCQLEKQACGADRGGLKLGRGAAKDSLKQHGPVSLVGAEPLSSPLKEETIPWNPCVHGDNTVGSSPCSQAQQPLNDCGQGPVLSPSRVLGTESPPLAPEPFAYTSCTTGETSPVKLRMGFSQNKAVKVRRRVSEKVPRLGKQLPPQPERQRVTERDPSRPHQGGLSRRPTLAREPPGRSCSESTLYPVPFLVPVVVAQRESYPTSPQAFFPMEAALLSSAARRKQRRWQSTMEISAKAGSVSQPGPSMGLPRSPAKRGSGPRAQSRPTLARQDACARCESDPSEHSADCTSLYHSTIAETSEDEEASDHTANRFGDESSSNDSEGCFRGSRRRLAIGSAEAGQGGWAWPRVPPQQPSRAPGNTRPPLPPVPKLCRIKASKALKKKIRRFQPAALKVMTMV
luciferase reporter driven by the Amelx 2.2 kb promoter in cells co-transfected with PITX2A and Dact2: fold activation by PITX2A with Dact2 (∼22-fold without Dact2): 14 fold activation
